Measurements as given in paper PMC5359625, “The Interrelationship between Abscisic Acid and Reactive Oxygen Species Plays a Key Role in Barley Seed Dormancy and Germination”.

B1: HvCAT2-probe (HvCAT2 promoter, ABRE) (dsDNA)
DNA 1: CACACACACGCACTACGTTCCGAGCATTGCGTCGCGGTGGGTGAG
DNA 2: CTCACCCACCGCGACGCAATGCTCGGAACGTAGTGCGTGTGTGTG
B2: unlabeled HvCAT2 probe competitor (dsDNA)
DNA 1: B1 DNA 1
DNA 2: B1 DNA 2

Tests used:
GST-HvABI5 [1] = target: T1, GST-HvABI5 (Hordeum vulgare, UniProt Q8GTR6 1-353); experiment: EMSA; DIG Gel Shift Kit 2nd Generation (Roche), manufacturer's conditions; buffer, salt, pH and temperature not stated; conditions: protein: recombinant; tags: N-terminal GST (pGEX); chain copies: 2; label: DIG; blunt
T1 sequence: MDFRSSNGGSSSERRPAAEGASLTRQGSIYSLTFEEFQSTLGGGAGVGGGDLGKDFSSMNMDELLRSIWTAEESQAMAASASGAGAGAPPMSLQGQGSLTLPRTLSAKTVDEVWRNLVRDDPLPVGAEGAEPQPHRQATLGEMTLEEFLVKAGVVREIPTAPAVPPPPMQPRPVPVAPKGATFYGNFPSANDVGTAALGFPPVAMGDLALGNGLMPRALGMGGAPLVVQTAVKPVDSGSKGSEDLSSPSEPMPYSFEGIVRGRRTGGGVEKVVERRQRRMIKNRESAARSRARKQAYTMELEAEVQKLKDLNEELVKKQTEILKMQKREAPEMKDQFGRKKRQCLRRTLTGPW

GST-HvABI5 [2] = target: T1, GST-HvABI5; experiment: competition; 100x molar excess unlabeled competitor vs DIG-labeled N1; DIG Gel Shift Kit 2nd Generation (Roche), manufacturer's conditions; buffer, salt, pH and temperature not stated; conditions: protein: recombinant; tags: N-terminal GST (pGEX); chain copies: 2; label: none; blunt

Binder	binding result (GST-HvABI5 [1])	binding result (GST-HvABI5 [2])
B1	binds	
B2		binds
